Measurements taken from patent US20110117093A1 (published 2011).
One block for each binder: values may come before it.

What was measured:
[1] = target: T1, biotinylated B Lymphocyte Stimulator (human, soluble form) (human, UniProt Q9Y275 134-285, NHS-biotin labelled at a molar ratio of 20:1 biotin:B Lymphocyte Stimulator); experiment: purified scFv; inhibition of biotinylated BLyS binding to IM9 cells
T1 construct: also called bio-B Lymphocyte Stimulator

[2] = target: T2, B Lymphocyte Stimulator, human, soluble form (human, UniProt Q9Y275 134-285); experiment: phage ELISA
T2 construct: also called BLyS; immobilized B Lymphocyte Stimulator

[3] = target: T3, biotinylated B Lymphocyte Stimulator (soluble form) (human, UniProt Q9Y275 134-285, biotinylated with NHS-biotin (20:1 biotin:protein)); experiment: phage scFv, IM9 receptor binding inhibition
T3 construct: The biotinylation protocol covers human or mouse protein; also called bio-B Lymphocyte Stimulator; free B Lymphocyte Stimulator
Experimental: Plates were washed three times in PBST and three times in PBS, tapped dry and 50 μl of streptavidin-Delfia (Wallac) was added to each well at 1:1000 dilution in the Manufacturer's assay buffer. The plates were then incubated at room temperature for 1 hour and washed six times in Delfia wash solution (Wallac). After tapping the plates dry, 100 μl per well of Delfia enhancement solution (Wallac) was added. The plates were gently tapped to encourage micelle formation, incubated at room temperature for 10 minutes, and fluorescence read on a Wallac 1420 workstation at […].
All of the unique phage scFvs from panel 2 were assessed for their ability to inhibit B Lymphocyte Stimulator binding to its cognate receptor on IM9 cells. The biotinylation of B Lymphocyte Stimulator, maintenance of IM9 cells and receptor binding inhibition assay were performed as described in Example 3.

[4] = target: T4, membrane-bound B Lymphocyte Stimulator on P388 plasma membranes (mouse, UniProt Q9WU72 1-309); experiment: phage competition ELISA
T4 construct: whole, on cells

TNF-alpha = target: T5, TNF-alpha (human, UniProt P01375 77-233); experiment: phage ELISA
T5 construct: also called TNFα; Tumour Necrosis Factor-alpha
T5 sequence (P01375 77-233 limits assumed): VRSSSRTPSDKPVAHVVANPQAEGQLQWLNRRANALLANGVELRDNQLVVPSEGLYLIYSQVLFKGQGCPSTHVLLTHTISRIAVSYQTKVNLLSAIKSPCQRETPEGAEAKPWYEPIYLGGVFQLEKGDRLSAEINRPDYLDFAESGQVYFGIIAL

T4 sequence (Q9WU72 whole entry): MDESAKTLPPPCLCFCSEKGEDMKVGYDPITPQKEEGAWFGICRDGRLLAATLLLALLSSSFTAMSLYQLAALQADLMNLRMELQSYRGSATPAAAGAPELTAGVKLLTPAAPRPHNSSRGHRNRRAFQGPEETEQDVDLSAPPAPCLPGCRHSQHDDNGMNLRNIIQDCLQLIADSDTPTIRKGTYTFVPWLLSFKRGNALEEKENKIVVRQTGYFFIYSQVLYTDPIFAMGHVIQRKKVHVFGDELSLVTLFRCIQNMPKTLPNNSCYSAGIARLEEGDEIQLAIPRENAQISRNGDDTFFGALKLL

binding result [4]: binds
B4: I079B04 (scFv)
scFv: EVQLVESGGGLVQPGGSLRLSCAASGFTFSDYAMSWVRQAPGKGLEWVSAISGSGGSTSYADSVKGRFTISRDNSKNTLYLQMNSLRAEDTAVYYCASLLSDYWGRGTTVTVSSGGGGSGGGGSGGGGSQSVLTQPASVSGSPGQSITISCTGTSSDVGGYNYVSWYQQHPGKAPKLMIYEGSKRPSGVSYRFSGSKSGNTASLTISGLQAEDEADYYCSSYTTRSTRVFGGGTKLTVLG

binding result [4]: binds
B5: I080B01 (scFv)
scFv: QVQLVQSGAEVKKPGASVKVSCKASGYTFTNYYMHWVRQAPGQGLEWMGIINPRDVSTTYAQKFQGRATMTRDTSTSTVYMELNSLRSEDTAVYYCAREYSGYHYVEGGSYAMDVWGQGTMVTVSSGGGGSGGGGSGGGGSALSYVLTQPPSASGTPGQRVTITCSGSSSNIGNYYVNWYQQVSGTAPKLIIYRNNQRPSGVPDRFSGSKSGASASLAISGLRSEDEADYFCAAWDDSLREFVFGTGTKVTVLG

binding result [4]: binds
B6: I079F08 (scFv)
scFv: QMQLVQSGGGVVQPGRSLRLSCAASGFTFSSYGMHWVRQAPGKGLEWVAVISYDGSIKYYADSVKGRFTISRDNSKNTLYLQMNSLRAEDTAVYYCARYYYHSSGSDAFDIWGQGTLVTVPSGGGGSGGGGSGGGGSQSVLTQPPSASGTPGQRVTISCSGSSSNIGSNTVNWYQRLPGAAPQLLIYNNNQRPSGVPDRFSGSKSGTSASLAISGLQSEDEADYYCAAWDDSLNGWVFGGGTKLTVLG

binding result (TNF-alpha): no binding
B7: I018D07 (scFv)
scFv: GVQLVQSGPEVKKPGASVIVSCTASGYTFTSYGVSWVRQAPGQGLEWIGWISAHNGQTKYAEKFQGRVTMTRNTSISTAYMELSSLRSEDTAVYYCARDGSYDILTGYYIDNYMDVWGKGTMVTVSSGGGGSGGGGSGGGGSSELTQDPAVSVALGQTVRITCQGDSLRSYYTNWFQQKPGQAPLLVVYAKNKRPSGIPDRFSGSSSGNTASLTITGAQAEDEADYYCHSRDSSGNHVLFGGGTKLTVLG

Further lines, the binder ahead of its results:

B1: I068C06 (scFv)
scFv: EVQLVQSGAEVKKPGSSVKVSCKASGGTVSSRTISWVRQAPGQGLEWMGGSLPPSGAPIYAQKFQGRVAITADALTNTAFMELRSLKSDDTAVYYCARDQGRYLDLWGKGTLVTVSSGGGGSGGGGSGGGGSAQAVLTQPSSVSGAPGQRVTISCTGSRSNIGAGYDVHWYQQLPGTAPKLLIYGNSNRPSGVPDRFSGSKSGTSASLAITGLQADDEADYYCQSYDTSLRGLFGTGTKVTVLG
notes: also called I0068C06; 0068C06
IC50 [1]: 62 nM

B2: I026C04-K (scFv)
scFv: QVQLVQSGAEVKKPGSSVKVSCRASGGSFNKHAISWVRQAPGRGLEWMGGILPMYGTANYAQKFQGRVTITADKLTNTVYMDLSRLRYEDTAVYYCARELGLSIVGATTGALDMWGKGTLVTVSSGGGGSGGGGSGGGGSAQSVLTQPPSVSAAPGQKVTISCSGSSSNIGNNYVSWYQQIPGTAPKLLIYENNKRPSGIPDRFSGSKSGASATLDITGLQTGDEADYYCGTWHSSQVVFGGGTKLTVLG
binding result [2]: binds

B3: I026C04-K (scFv)
scFv: B2 scFv
binding result [3]: binds
